{
  "source": "patent US20220396825A1",
  "about": "“METHOD FOR PREPARING […]” (KAO CORPORATION, priority 2019, published 2022)",
  "molecules": {"B1": {"name": "S1 nuclease: single-strand-specific endonuclease (Promega Corporation, catalog No.: M5761) (protein, UniProt P24021 21-287, looked up)", "Nuclease S1": "WGNLGHETVAYIAQSFVASSTESFCQNILGDDSTSYLANVATWADTYKYTDAGEFSKPYHFIDAQDNPPQSCGVDYDRDCGSAGCSISAIQNYTNILLESPNGSEALNALKFVVHIIGDIHQPLHDENLEAGGNGIDVTYDGETTNLHHIWDTNMPEEAAGGYSLSVAKTYADLLTERIKTGTYSSKKDSWTDGIDIKDPVSTSMIWAADANTYVCSTVLDDGLAYINSTDLSGEYYDKSQPVFEELIAKAGYRLAAWLDLIASQPS"}},
  "test_system": "fragments of sample DNA (genomic DNA of TA100 strain)",
  "experiment": "Error reduction by single-strand-specific nuclease treatment of DNA fragments (DMSO-exposed library)",
  "type": "biochemical, Salmonella typhimurium",
  "experimental": "From DNA derived from the DMSO-exposed cells or the 3-MC-exposed cells, a plurality of samples each of which was to give 60 ng or 100 ng of DNA were prepared, and the samples were each fragmented into pieces having a length of approximately 350 bp on average by using a DNA Shearing System ME220. The fragments of each sample were divided into two groups. For the group without nuclease treatment (nontreatment group), the DNA fragments were suspended in Resuspension buffer attached to the TruSeq for End Repair in the subsequent step in accordance with the recommended protocol to afford 60 μL of eluate. For the group with nuclease treatment (treatment group), the DNA fragments were purified through steps of adsorbing on Sample Purification Beads attached to the TruSeq (hereinafter, also expressed as beads, simply), washing twice with 80% ethanol water, and drying in accordance with the recommended protocol. In the subsequent elution operation, the beads were suspended in distilled water (DW, produced by NIPPON GENE CO., LTD.) to afford 30 μL of DNA eluate containing DNA fragments.\nS1 nuclease (Promega Corporation, catalog No.: M5761), Mung Bean Nuclease (MBN) (Takara Bio Inc., catalog No.: 2420A), or RecJf (New England Biolabs, catalog No.: M0264L) was used as the single-strand-specific nuclease. The activity values (numbers of units) of the enzymes were defined as follows. • S1 nuclease: an enzymatic activity such that 1 μg of acid-soluble substance is generated per minute at 37° C. in a mixed solution of 30 mM sodium acetate (pH 4.6, 25° C.), 50 mM NaCl, 1 mM ZnCl2, 5% glycerol, and 0.5 mg/mL denatured calf thymus DNA was defined as 1 U. • MBN: an enzymatic activity such that 1 μg of acid-soluble decomposition product is generated per minute at 37° C. and pH 5.0 with thermally denatured calf thymus DNA as a substrate was defined as 1 U. • RecJf: an amount of the enzyme necessary for generating 0.5 ng of deoxyribonucleotide soluble in trichloroacetic acid per minute at 37° C. in 50 μL of whole reaction solution (containing 1×NE Buffer 2 and 1.5 μg of sonicated [^3H]-labeled single-stranded E. coli DNA) was defined as 1 U.\nTo the DNA eluate obtained in I), 4 μL of 10× Reaction Buffer attached to the S1 nuclease was added. The S1 nuclease was appropriately diluted with 1× Reaction Buffer, 1, 3, 10, 30, 100, or 300 U thereof was added to the DNA eluate, and DW was added thereto to a total volume of 40 μL. For the sample to which 1000 U of the S1 nuclease was to be added, 4.6 μL of 10× Reaction Buffer was added to 30 μL of the DNA eluate obtained by beads purification, and 12 μL of the stock solution of the S1 nuclease was added thereto to a total volume of 46 μL. Each reaction solution with the S1 nuclease was incubated at 30° C. for 30 minutes. Assuming that the whole amount of DNA (60 ng) present at the beginning of library preparation existed in each reaction solution, the numbers of units of the S1 nuclease per 1 ng of DNA were 0.02, 0.05, 0.17, 0.50, 1.67, 5.00, and 16.7 U/ng. For inactivation of the S1 nuclease in each reaction solution, 3 μL of 0.5 M EDTA (pH 8.0) (produced by NIPPON GENE CO., LTD.) was added, and the resultant was incubated at 70° C. for 10 minutes. To purify DNA from the inactivated reaction solution, beads attached to the TruSeq in an amount equal to that of the reaction solution were added and a purification operation was carried out in accordance with the recommended protocol, and the resultant was suspended in Resuspension buffer attached to the TruSeq to afford 60 μL of eluate (S1 nuclease treatment group). […]\nTo the DNA eluate obtained in I), 5 μL of 10×NE Buffer 2 attached to the RecJf was added. The RecJf was appropriately diluted with 1×NE Buffer 2, and 3, 10, 30, or 100 units thereof was added to the DNA eluate to a total volume of 50 μL. Each reaction solution with the RecJf was stirred, and incubated at 37° C. for 60 minutes. […]",
  "data": [
    {"molecule": "B1", "values": [
      {"measurement": "Error reduction rate, GC to CG", "setting": "S1 nuclease 0.02 U/ng", "value": 30.4, "unit": "%"},
      {"measurement": "Error reduction rate, GC to TA", "setting": "S1 nuclease 0.02 U/ng DNA in reaction solution", "value": 52.8, "unit": "%"},
      {"measurement": "Error reduction rate, GC to CG", "setting": "S1 nuclease 0.05 U/ng", "value": 50.6, "unit": "%"},
      {"measurement": "Error reduction rate, GC to TA", "setting": "S1 nuclease 0.05 U/ng", "value": 35.3, "unit": "%"},
      {"measurement": "Error reduction rate, GC to CG", "setting": "S1 nuclease 0.17 U/ng", "value": 84.9, "unit": "%"},
      {"measurement": "Error reduction rate, GC to TA", "setting": "S1 nuclease 0.17 U/ng", "value": 83.1, "unit": "%"},
      {"measurement": "Error reduction rate, GC to CG", "setting": "S1 nuclease 0.50 U/ng", "value": 87.5, "unit": "%"},
      {"measurement": "Error reduction rate, GC to TA", "setting": "S1 nuclease 0.50 U/ng", "value": 69.9, "unit": "%"},
      {"measurement": "Error reduction rate, GC to CG", "setting": "S1 nuclease 1.67 U/ng", "value": 86.0, "unit": "%"},
      {"measurement": "Error reduction rate, GC to TA", "setting": "S1 nuclease 1.67 U/ng", "value": 81.7, "unit": "%"},
      {"measurement": "Error reduction rate, GC to CG", "setting": "S1 nuclease 5.00 U/ng", "value": 98.3, "unit": "%"},
      {"measurement": "Error reduction rate, GC to TA", "setting": "S1 nuclease 5.00 U/ng", "value": 84.5, "unit": "%"},
      {"measurement": "Error reduction rate, GC to CG", "setting": "S1 nuclease 16.7 U/ng", "value": 98.1, "unit": "%"},
      {"measurement": "Error reduction rate, GC to TA", "setting": "S1 nuclease 16.7 U/ng", "value": 79.6, "unit": "%"}
    ]}
  ]
}
